Data from patent US6699969 (University of California, dated 2004).

B2: in vitro translated S. purpuratus p60 katanin with 37 amino acid N-terminal S-Tag (enzyme)
chain: MSVDEICENTKMGREYALLGNYETSLVYYQGVLQQIQKLLTSVHEPQRKHQWQTIRQELSQEYEHVKNITKTLNGFKSEPAAPEPAPNHGRAAPFSHHQHAAKPAAAEPARDPDVWPPPTPVDHRPSPPYQRAARKDPPRRSEPSKPANRAPGNDRGGRGPSDRRGDARSGGGGRGGARGSDKDKNRGGKSDKDKKAPSGEEGDEKKFDPAGYDKDLVENLERDIVQRNPNVHWADIAGLTEAKRLLEEAVVLPLWMPDYFKGIRRPWKGVLMVGPPGTGKTMLAKAVATECGTTFFNVSSASLTSKYHGESEKLVRLLFEMARFYAPSTIFIDEIDSICSKRGTGSEHEASRRVKSELLIQMDGVSGPSAGEESSKMVMVLAATNFPWDIDEALRRRLEKRIYIPLPEIDGREQLLRINLKEVPLADDIDLKSIAEKMDGYSGADITNVCRDASMMAMRRRIQGLRPEEIRHIPKEELNQPSTPADFLLALQKVSKSVGKEDLVKYMAWMEEFGSV
notes: Made in a rabbit reticulocyte transcription-translation reaction; not shown: 37 amino acid N-terminal S-Tag from pCITE-4a+

Experiments:
[1] = biological target: the molecule itself; assay: rotary-shadowing electron microscopy of recombinant p60
[2] = biological target: T1, baculovirus-expressed S. purpuratus katanin p80 subunit with N-terminal His(6) tag (Strongylocentrotus purpuratus, UniProt O61585 1-690); assay: co-expression in insect cells, metal affinity purification, Coomassie staining
T1 construct: Expressed in Sf9 cells and purified on Ni-NTA; GenBank AF052433; also called p80 katanin; recombinant p80
T1 sequence: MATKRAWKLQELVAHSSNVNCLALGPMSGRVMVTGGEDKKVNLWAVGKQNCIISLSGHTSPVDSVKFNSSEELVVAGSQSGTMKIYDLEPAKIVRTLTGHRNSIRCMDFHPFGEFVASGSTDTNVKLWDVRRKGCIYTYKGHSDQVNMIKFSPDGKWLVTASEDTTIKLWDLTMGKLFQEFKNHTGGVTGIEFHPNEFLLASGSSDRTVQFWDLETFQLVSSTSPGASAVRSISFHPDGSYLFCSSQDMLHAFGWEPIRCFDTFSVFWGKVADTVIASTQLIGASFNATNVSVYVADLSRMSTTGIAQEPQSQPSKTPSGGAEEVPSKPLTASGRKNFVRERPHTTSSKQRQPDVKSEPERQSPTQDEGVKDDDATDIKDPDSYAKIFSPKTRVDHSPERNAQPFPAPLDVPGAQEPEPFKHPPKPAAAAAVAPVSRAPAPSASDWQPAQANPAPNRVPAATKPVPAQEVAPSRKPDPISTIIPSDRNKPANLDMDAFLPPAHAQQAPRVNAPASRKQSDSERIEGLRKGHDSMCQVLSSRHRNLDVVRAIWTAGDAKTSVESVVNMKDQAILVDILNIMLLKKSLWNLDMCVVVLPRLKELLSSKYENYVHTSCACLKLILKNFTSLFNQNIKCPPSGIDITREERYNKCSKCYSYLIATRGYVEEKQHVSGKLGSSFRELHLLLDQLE
Procedure: 6×His-tagged katanin subunits were purified from lysates of baculovirus-infected insect cells by binding to Ni^2+-NTA Superflow followed by elution with imidazole, as described in the Experimental Procedures. […] Proteins bound to the resin were analyzed by SDS-PAGE followed by staining with Coomassie.
Deciphering the roles of the two katanin subunits is essential for understanding the enzyme's mechanism and biological activities. […] We therefore sought to express the two subunits together and separately and then test their enzymatic activities.

[3] = biological target: T2, p80 delta 560-690, S. purpuratus p80 katanin deletion lacking the C-terminal 130 amino acids, with N-terminal … (Strongylocentrotus purpuratus, UniProt O61585 1-559); assay: in vitro co-translation, immunoprecipitation with anti-p60 antibody, S-protein HRP blot
T2 construct: Residues 560-690 deleted by the construct's name; The text says 'C-terminal 130 amino acids', but 560-690 counts 131 residues; also called 560-690 deletion derivative of p80; not shown: 37 amino acid N-terminal S-Tag from pCITE-4a+
T2 sequence: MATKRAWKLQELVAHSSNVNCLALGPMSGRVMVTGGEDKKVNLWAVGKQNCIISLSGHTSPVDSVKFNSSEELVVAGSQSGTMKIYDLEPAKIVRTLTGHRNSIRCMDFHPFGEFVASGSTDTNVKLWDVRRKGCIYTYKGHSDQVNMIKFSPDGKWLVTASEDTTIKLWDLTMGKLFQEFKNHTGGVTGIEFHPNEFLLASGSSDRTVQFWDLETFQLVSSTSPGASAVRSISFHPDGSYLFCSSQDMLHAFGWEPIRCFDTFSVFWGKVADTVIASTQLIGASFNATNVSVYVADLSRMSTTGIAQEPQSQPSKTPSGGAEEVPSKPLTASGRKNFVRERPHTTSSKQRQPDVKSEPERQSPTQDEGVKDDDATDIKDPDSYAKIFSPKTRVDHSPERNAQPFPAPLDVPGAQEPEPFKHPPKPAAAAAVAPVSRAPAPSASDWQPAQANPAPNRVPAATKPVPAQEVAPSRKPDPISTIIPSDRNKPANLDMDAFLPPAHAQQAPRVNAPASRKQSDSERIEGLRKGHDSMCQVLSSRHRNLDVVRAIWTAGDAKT
Procedure: (§1) In vitro synthesis of proteins directly from plasmid DNAs was accomplished using the Single Tube Protein System 2, T7 (Novagen). […] For immunoprecipitations, lysates were incubated on ice with Pansorbin (Calbiochem)-antibody complexes, washed in NET buffer (50 mM Tris-Cl (pH 7.5), 150 mM NaCl, 0.1% Nonidet P-40, 1 mM EDTA (pH 8.0), 0.25% gelatin 0.02% sodium azide), then resuspended in SDS-PAGE sample buffer. In vitro translation products in both the pellets and supernatants from the immunoprecipitations were resolved by SDS-PAGE, transferred to nitrocellulose, probed with S-protein HRP conjugate (Novagen) and detected by chemiluminescence.

[4] = biological target: B2; assay: as above
Procedure: as §1

B1: baculovirus-expressed S. purpuratus katanin p60 subunit with N-terminal His(6) tag (enzyme, not shown: small tags and cut ends)
chain: MSVDEICENTKMGREYALLGNYETSLVYYQGVLQQIQKLLTSVHEPQRKHQWQTIRQELSQEYEHVKNITKTLNGFKSEPAAPEPAPNHGRAAPFSHHQHAAKPAAAEPARDPDVWPPPTPVDHRPSPPYQRAARKDPPRRSEPSKPANRAPGNDRGGRGPSDRRGDARSGGGGRGGARGSDKDKNRGGKSDKDKKAPSGEEGDEKKFDPAGYDKDLVENLERDIVQRNPNVHWADIAGLTEAKRLLEEAVVLPLWMPDYFKGIRRPWKGVLMVGPPGTGKTMLAKAVATECGTTFFNVSSASLTSKYHGESEKLVRLLFEMARFYAPSTIFIDEIDSICSKRGTGSEHEASRRVKSELLIQMDGVSGPSAGEESSKMVMVLAATNFPWDIDEALRRRLEKRIYIPLPEIDGREQLLRINLKEVPLADDIDLKSIAEKMDGYSGADITNVCRDASMMAMRRRIQGLRPEEIRHIPKEELNQPSTPADFLLALQKVSKSVGKEDLVKYMAWMEEFGSV
notes: Expressed in Sf9 cells and purified on Ni-NTA; also called p60 katanin; recombinant p60
- binding result [1]: binds
- p60:p80 molar ratio in the co-purified protein [2]: ~0.9 mol p80 per 1.0 mol p60

Binder: B2
- binding result [3]: no binding

B3: p80 delta 303-690, C-terminal truncation of S. purpuratus p80 katanin containing only the WD40 domain, with N-terminal S-Tag (other)
chain: MATKRAWKLQELVAHSSNVNCLALGPMSGRVMVTGGEDKKVNLWAVGKQNCIISLSGHTSPVDSVKFNSSEELVVAGSQSGTMKIYDLEPAKIVRTLTGHRNSIRCMDFHPFGEFVASGSTDTNVKLWDVRRKGCIYTYKGHSDQVNMIKFSPDGKWLVTASEDTTIKLWDLTMGKLFQEFKNHTGGVTGIEFHPNEFLLASGSSDRTVQFWDLETFQLVSSTSPGASAVRSISFHPDGSYLFCSSQDMLHAFGWEPIRCFDTFSVFWGKVADTVIASTQLIGASFNATNVSVYVADLSRMS
notes: not shown: 37 amino acid N-terminal S-Tag from pCITE-4a+
- binding result [4]: no binding
